Assay results from the RNAGym collection of RNA variant scans (doi:10.7554/elife.90254).

B1: OR4K15 (parent)
chain: GUUAACGGUCAUAGGCCAUGGAAACUAGGAGCACCAUUUCGCUGCCAGUGAAGAAAUGAACAAAGAAAAUCUGGGCCAGGCAGGCAUCAAAAGAAAUAGUCUUGCGCUCAACCAGAAAGUCUGUAAUCAUUUUAAGGGUA

Variants of: B1
Experiment: self-cleavage, relative activity (ratio to wild type); higher = more cleavage; in vitro, sequencing; the parent is a self-cleaving ribozyme

Row | Variant | self-cleavage
1 | A33G U39C | 0.8
2 | A91C U124C | 1.67
3 | U19A A54G | 1.15
4 | A98U | 2.22
5 | U26C A62U | 1.84
6 | A52G A95U | 1.37
7 | C46U U139C | 2.16
8 | A13U U72C | 0.49
9 | U103C A134U | 0.78
10 | U19C A126G | 1.48
11 | U3G U9A | 0.99
12 | A55U U57G | 1.54
13 | G41U A117G | 1.93
14 | G7A U37C | 2.58
15 | A62U U132A | 2.19
16 | A22G A118U | 1.05
17 | A24G G73A | 0.29
18 | U72G A135G | 0.22
19 | A24G A30U | 1.29
20 | A27U U132A | 1.42
21 | G15U A62G | 2.71
22 | A59U U122C | 0.69
23 | C40U U97C | 0.94
24 | A69G A82U | 0.18

Row | Variant | self-cleavage
25 | A117G C128A | 1.07
26 | A11G C17A | 0.61
27 | C32A C128A | 0.81
28 | A62G U127C | 0.38
29 | C46U U127C | 0.86
30 | C10U U131C | 0.47
31 | A23G A59G | 1.11
32 | A110C A117G | 0.64
33 | G29A U87A | 1.79
34 | U49G A90G | 0.75
35 | U37C A91U | 2
36 | A55G G119C | 1.03
37 | U49A U57C | 1.11
38 | A18G A96C | 1.68
39 | U49C A64G | 2.02
40 | A56G A66G | 0.93
41 | A33U U100C | 1.84
42 | U37C A55G | 1.59
43 | G41C A86C | 0.81
44 | U43C A110G | 0.15
45 | A96G A114U | 0.07
46 | A62U A68G | 1.4
47 | U120C A126U | 0.57
48 | U108C C112U | 0.01

Row | Variant | self-cleavage
49 | U2C A63G | 1.12
50 | G53U A111G | 0.04
51 | A54G G136U | 2.55
52 | A62U U102C | 1.91
53 | A66G A98G | 0.38
54 | A96G U133C | 1.82
55 | U57A U139A | 0.91
56 | C10U U124A | 0.36
57 | U2A U38C | 1.82
58 | G65U | 2
59 | U38C A78U | 0.35
60 | A27G A82U | 0.27
61 | G21A A94G | 1.81
62 | A63G A68G | 1.41
63 | C112G A135U | 0.01
64 | A24C A96G | 1.72
65 | A69U U102C | 2.2
66 | U49A U122C | 0.56
67 | A22C | 1.11
68 | A92G C105U | 0.08
69 | A96U A135G | 1.39
70 | U9C A52G | 1.63
71 | A51G A54U | 1.4
72 | U38C U103G | 0.03

Row | Variant | self-cleavage
73 | G44U A66U | 2.02
74 | U12C C42U | 1.16
75 | A63G A78U | 0.22
76 | A52G A110G | 0.17
77 | A67U A129U | 1.14
78 | A63G U124C | 1.17
79 | U43C A54G | 1.4
80 | U39C A129U | 1.16
81 | A33U U131C | 1.83
82 | U9G G83A | 1.07
83 | A59U A117U | 0.89
84 | U9G A62U | 0.44
85 | A33G A118U | 0.47
86 | C16G U127A | 2.18
87 | G7A A111G | 0.03
88 | G75C A126G | 0.12
89 | U39A A129C | 1.24
90 | A66U C113A | 0
91 | U9C A54G | 1.53
92 | A90U A98U | 2.21
93 | A56C U133A | 1.4
94 | G75A U87C | 0.14
95 | A94U U102C | 1.36
96 | G75A G138A | 0.13

Row | Variant | self-cleavage
97 | C6U A116G | 0.34
98 | A60G A89C | 1.36
99 | A63G A111G | 0.02
100 | A11G A116C | 0.1
101 | A4G U12C | 0.58
102 | A67U A118U | 0.53
103 | U12C U139C | 1.41
104 | A51G U124G | 1.05
105 | A11G A118U | 0.2
106 | A62G A67C | 1.96
107 | A62G U72C | 0.24
108 | A59G U131C | 0.71
109 | G58U | 1.43
110 | C40A A117G | 2.53
111 | G65A A117G | 0.36
112 | C32U A86G | 1.82
113 | A62G C112U | 0.01
114 | C25U A63G | 0.37
115 | A86G A134G | 1.25
116 | G65A A110C | 0.19
117 | A11U U72A | 0.53
118 | G75A A125G | 0.03
119 | G53U U100C | 2.06
120 | A68G A96G | 1.04

Row | Variant | self-cleavage
121 | G106A U131C | 0.03
122 | A67G A134G | 1.7
123 | A95G G115A | 0.19
124 | A56G A94U | 1.08
125 | A64C U131C | 1.9
126 | A60G A64G | 1.24
127 | A66G U87A | 1.15
128 | A59G C85U | 0.51
129 | U87C U108G | 0.02
130 | U19C A110C | 0.16
131 | A64G A90U | 1.58
132 | U39A U108C | 0.02
133 | U2C A94U | 1.48
134 | A56C A116U | 0.13
135 | G106C A129U | 0
136 | A11G G137A | 0.53
137 | G14U A118U | 0.4
138 | C88U A95G | 2.12
139 | U3C U108C | 0.04
140 | U87A A110C | 0.25
141 | A117G A134G | 0.61
142 | G41A U130C | 0.99
143 | A54C A95G | 2.18
144 | U3C U102A | 0.38

Row | Variant | self-cleavage
145 | A5G A94U | 0.8
146 | A52G G106A | 0.01
147 | A69G A78C | 0.36
148 | U100A U139A | 1.29
149 | A52G G79A | 0.27
150 | A63G A67U | 1.45
151 | U49C A59G | 0.7
152 | C42U U108A | 0
153 | U37C C107U | 0.02
154 | A22G G58A | 0.55
155 | U19C C61U | 1.56
156 | G29A U103C | 0.77
157 | A52U A126G | 1.31
158 | G41A A66G | 1.74
159 | U72G A95G | 0.43
160 | U38C U49C | 1.21
161 | U43C A59C | 0.12
162 | U70C A82U | 0.37
163 | U9A U97A | 1.03
164 | U9C A24G | 1.33
165 | A33U A54G | 0.76
166 | A118G A140G | 1.32
167 | A86G G137A | 1.83
